Measured values: US20120253023A1

Molecular target: T1, amylin receptor (rat), P32214
T1 chain 1: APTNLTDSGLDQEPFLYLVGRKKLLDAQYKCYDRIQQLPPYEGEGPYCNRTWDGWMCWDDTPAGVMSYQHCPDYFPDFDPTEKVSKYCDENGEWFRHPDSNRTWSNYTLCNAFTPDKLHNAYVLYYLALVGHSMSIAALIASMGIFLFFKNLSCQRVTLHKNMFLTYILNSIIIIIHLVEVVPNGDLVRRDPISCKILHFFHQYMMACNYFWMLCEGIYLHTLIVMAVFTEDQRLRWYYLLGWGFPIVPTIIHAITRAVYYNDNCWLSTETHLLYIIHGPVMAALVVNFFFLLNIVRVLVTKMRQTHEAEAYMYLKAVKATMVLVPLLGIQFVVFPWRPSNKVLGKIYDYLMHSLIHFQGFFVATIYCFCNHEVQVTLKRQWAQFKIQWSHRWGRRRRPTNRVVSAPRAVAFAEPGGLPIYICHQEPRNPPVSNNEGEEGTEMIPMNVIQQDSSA
T1 chain 2: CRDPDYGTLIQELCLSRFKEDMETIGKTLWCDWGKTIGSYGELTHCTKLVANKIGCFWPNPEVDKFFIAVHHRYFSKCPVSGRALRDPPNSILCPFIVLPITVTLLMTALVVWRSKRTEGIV

IC50: 83 pM
Binder: DFMGWMDFGKRKCNTATCATQRLANELVRLQTYPRTNVGSNTY (modifications not checked) [DF(P-CH2SO3)… …]
